Data as given in patent publication US9616106 (NEUMEDICINES, dated 2017).

Experiments:
Assay in all cases: cell-based or functional assay
[1] = biological target: murine IL-12 receptor on mouse CD14- PBMC (mouse) (UniProt P97378)
[2] = biological target: rat IL-12 receptor on rat PBMC (rat)
[3] = biological target: human IL-12 receptor on human CD14- PBMC (human, UniProt Q99665 24-862)
Chain of human IL-12 receptor on human CD14- PBMC (Q99665 24-862): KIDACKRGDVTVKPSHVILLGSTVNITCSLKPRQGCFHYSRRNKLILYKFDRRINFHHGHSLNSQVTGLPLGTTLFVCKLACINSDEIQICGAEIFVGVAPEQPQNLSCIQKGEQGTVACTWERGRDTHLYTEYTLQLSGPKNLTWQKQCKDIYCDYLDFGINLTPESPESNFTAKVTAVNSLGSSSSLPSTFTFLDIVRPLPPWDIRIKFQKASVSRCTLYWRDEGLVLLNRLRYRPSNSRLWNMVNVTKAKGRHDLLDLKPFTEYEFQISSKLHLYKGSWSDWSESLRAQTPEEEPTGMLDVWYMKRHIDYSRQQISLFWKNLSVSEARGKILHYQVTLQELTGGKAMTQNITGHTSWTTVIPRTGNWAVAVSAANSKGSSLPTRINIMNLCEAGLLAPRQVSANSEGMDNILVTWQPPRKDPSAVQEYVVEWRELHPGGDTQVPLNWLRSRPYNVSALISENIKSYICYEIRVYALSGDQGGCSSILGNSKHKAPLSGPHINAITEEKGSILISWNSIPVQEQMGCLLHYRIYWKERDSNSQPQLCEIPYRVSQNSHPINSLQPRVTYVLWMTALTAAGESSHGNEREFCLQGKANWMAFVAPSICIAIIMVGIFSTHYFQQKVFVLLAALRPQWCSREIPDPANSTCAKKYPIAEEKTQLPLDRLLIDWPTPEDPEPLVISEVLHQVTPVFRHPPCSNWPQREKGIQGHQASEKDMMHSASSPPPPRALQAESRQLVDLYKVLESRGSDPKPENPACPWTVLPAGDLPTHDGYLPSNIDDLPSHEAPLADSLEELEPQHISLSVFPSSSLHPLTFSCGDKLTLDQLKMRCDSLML

Chain of murine IL-12 receptor on mouse CD14- PBMC (mouse) (P97378 24-874): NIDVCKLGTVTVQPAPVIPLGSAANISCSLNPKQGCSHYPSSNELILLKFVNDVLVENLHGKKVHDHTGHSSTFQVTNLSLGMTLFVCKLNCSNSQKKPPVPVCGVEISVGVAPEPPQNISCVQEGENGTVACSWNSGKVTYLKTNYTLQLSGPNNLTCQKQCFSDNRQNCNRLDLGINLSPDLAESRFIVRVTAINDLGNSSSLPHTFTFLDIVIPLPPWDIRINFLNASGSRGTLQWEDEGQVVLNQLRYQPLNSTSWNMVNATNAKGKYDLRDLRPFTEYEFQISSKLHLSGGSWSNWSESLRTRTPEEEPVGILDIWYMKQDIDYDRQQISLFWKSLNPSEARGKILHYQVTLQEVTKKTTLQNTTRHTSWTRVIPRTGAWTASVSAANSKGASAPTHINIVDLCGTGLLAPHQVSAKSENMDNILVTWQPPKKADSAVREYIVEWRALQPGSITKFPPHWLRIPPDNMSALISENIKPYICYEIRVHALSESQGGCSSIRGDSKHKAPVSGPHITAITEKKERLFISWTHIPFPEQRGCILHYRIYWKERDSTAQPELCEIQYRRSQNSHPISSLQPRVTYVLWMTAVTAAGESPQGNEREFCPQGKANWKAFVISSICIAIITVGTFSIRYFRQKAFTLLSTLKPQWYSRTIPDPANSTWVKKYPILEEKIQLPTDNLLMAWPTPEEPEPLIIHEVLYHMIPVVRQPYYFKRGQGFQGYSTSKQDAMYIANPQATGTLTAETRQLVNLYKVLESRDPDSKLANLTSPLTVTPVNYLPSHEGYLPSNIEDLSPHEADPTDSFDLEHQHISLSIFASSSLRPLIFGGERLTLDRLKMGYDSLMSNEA

B1: recombinant human IL-12 (ligand)
chain 1: RNLPVATPDPGMFPCLHHSQNLLRAVSNMLQKARQTLEFYPCTSEEIDHEDITKDKTSTVEACLPLELTKNESCLNSRETSFITNGSCLASRKTSFMMALCLSSIYEDLKMYQVEFKTMNAKLLMDPKRQIFLDQNMLAVIDELMQALNFNSETVPQKSSLEEPDFYKTKIKLCILLHAFRIRAVTIDRVMSYLNAS
chain 2: IWELKKDVYVVELDWYPDAPGEMVVLTCDTPEEDGITWTLDQSSEVLGSGKTLTIQVKEFGDAGQYTCHKGGEVLSHSLLLLHKKEDGIWSTDILKDQKEPKNKTFLRCEAKNYSGRFTCWWLTTISTDLTFSVKSSRGSSDPQGVTCGAATLSAERVRGDNKEYEYSVECQEDSACPAAEESLPIEVMVDAVHKLKYENYTSSFFIRDIIKPDPPKNLQLKPLKNSRQVEVSWEYPDTWSTPHSYFSLTFCVQVQGKSKREKKDRVFTDKTSATVICRKNASISVRAQDRYYSSSWSEWASVPCS
modifications: glycosylated (produced in CHO cells)
EC50 for stimulating IFN-γ secretion from PBMC (ELISA) [1]: > 1 nM
EC50 for stimulating IFN-γ secretion from PBMC (ELISA) [2]: > 1 nM
EC50 for stimulating IFN-γ secretion from CD14- PBMC (ELISA, 16 hours) [3]: 0.00251 nM
